The values that follow come from the nanobody polyreactivity screen of Harvey et al. (2022).

A short description of this series: yeast display, Sf9 membrane polyspecificity reagent, FACS + sequencing; frameworks hold sequencing errors. In a few lines: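 Using colony PCR, genes from sorted yeast display clones were amplified, then sequenced on MiSeq at 2 × 250 and filtered by CDR length. The clones had been stained with 10% biotinylated, detergent-solubilized Sf9 membrane reagent for 1 hour at 4 °C and sorted by FACS into low and high (top ~1%) gates on anti-HA and streptavidin fluorescence. Polyreactivity labels come from the gate of origin.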
In the case of “QVQLVESGGGLVQAGGSLPLSCAASGSIFDLYTMGWYRQAPGKEREMVASISSSGGSTYYADSVKGRFTISRDNAKNTVYLQMNSLKPEDTAVYYCAAVASYHAYQYYYWGQGTQVTVSS”, the “polyreactivity (PSR sort gate)” value is on record as “high polyreactivity”. As for “QVQLVESGGGLVQAGGSLPLSCAASGSIFGTYAMGWYRQAPGKERELVAAITTSAGSTYYADSVKGRFTISRDNAKNTVYLQMKSLKPEDTAVYYCAARFRRGITYEYWGQGTQVTVSS”, the entry is “high polyreactivity”. For “QVQLVESGGGLVQAGGSLPLSCAASGSNFWRNALGWYRQAPGKERELVAAISGSGGSTYYADSVKGRFTISRDNAKNTVYLQMNSLKPEDTAVYYSYVSRMDYWGQGTQVTVSS”, the “polyreactivity (PSR sort gate)” value was “high polyreactivity”. As for “QVQLVESGGGLVQAGGSLPLSSAAYGSIFYYNAMGWYRQAPGKERELVAAISYSGDSTSYADSVKGRFTISRDNAKNYVFLQMYRLKPEDTAVFYCAAEQDYEDFYEDYYWGQGTQVTVSS”, the entry is “high polyreactivity”. As for “QVQLVESGGGLVQAGGSLPLTCAASGRIFGVYAMGWYRQAPGKERELVASISWSGSSTYYADSVKGRFTISRDNEKNTVYLQMNSLKPEDTAVYYCAADANHYRYGGGYWGQGTQVTVSS”, the entry is “low polyreactivity”; as for “QVQLVESGGGLVQAGGSLRFNCSASGSIFVRYTIGWYRQAPGKERELVAAISWGGGSTYYADSVKGRFTISRDNANNTVYLQMNSLKPEDTAVYYCNKRYIQLYDYWGQGTQVTVSS”, “low polyreactivity”. Regarding “QVQLVESGGGLVQAGGSLRFSCAASGFIFRRYTMGWYRQAPGKERELVAAISITGSRTYYADSVKGRFTISRDNAKNTVYLQMNSLKPEDTAVYYCAARVWYAPKTLFGYDFDYWGQGTQVTVSS”, the “polyreactivity (PSR sort gate)” value is listed as “high polyreactivity”. As for “QVQLVESGGGLVQAGGSLRFSCAASGFIFTLYAMGWYRQAPGKERELVASIRGSGGNTYYADSVKGRFTISRDNEKNTVYLQMNSLKPEDTAVYYCAARTYRRPYYSWGQGTQVTVSS”, the entry is “high polyreactivity”. For “QVQLVESGGGLVQAGGSLRFSCAASGFTFSYYAMGCYRQAPGKERELVAAISWSGGSTYYADSVKGRFTISRDTAKNTVYLQMNSLKPEDTAVYYCAAYLFYSSRSSYYGYDYWGQGTQVTVSS”, the “polyreactivity (PSR sort gate)” value is on record as “high polyreactivity”. Take “QVQLVESGGGLVQAGGSLRFSCAASGGIFFRNAMVWYRQAPGKEREFVAVISSGGSTYYADSVKGRFTISRDNAKNTVYLQMNSLKPEDTAVYYCAARRKRPGYTVTLHYPYNYWGQGTQVTVSS”: the “polyreactivity (PSR sort gate)” value is reported as “high polyreactivity”. As for “QVQLVESGGGLVQAGGSLRFSCAASGGIFRLYGMGWYREAPGKERELVAAIRQSGGRTYYADSVKGRFTISRDNAKNTVYLQMNSLKPEDTAVYYCAADLLYRSSGTVRSDYSRYDYWGQGTQVTVSS”, the entry is “low polyreactivity”. Regarding “QVQLVESGGGLVQAGGSLRFSCAASGIIFQRNDMGLYRQAPGKERELVANIRDGGITYADSVKGRFTLSRDNAKNTFYLQMNSLKPEDTAVYYCAADYHTPSSFAPIELYDYWGQGTQVTVSS”, the “polyreactivity (PSR sort gate)” value is “low polyreactivity”. As for “QVQLVESGGGLVQAGGSLRFSCAASGRIFGRYAMGWYRQAPGKERELVAAISSTGGSTYYADSVKGRFTISRDNANNTVYLQMNSLKPEDTAVYYCATVWYGRYYWATEYWGQGTQVTVSS”, the entry is “high polyreactivity”; as for “QVQLVESGGGLVQAGGSLRFSCAASGRPFPYYVMGWYRQAPGKERELVAAINSGGRTNYADSVKGRFTISRDNAKNTVYLQMNSLKPEDTAVYYCTKRGHPARLGYYYWGQGTQVNVSS”, “low polyreactivity”. Take “QVQLVESGGGLVQAGGSLRFSCAASGRTFPVYAMGWYRQAPGKEREFVAAISYRTGSTYYADSVKGRFTISRDNAKNTVYLQMNSLKPVDSAVYYCAADYRGSYWRYYYWGQGTQVTVSS”: the “polyreactivity (PSR sort gate)” value is on record as “high polyreactivity”. Regarding “QVQLVESGGGLVQAGGSLRFSCAASGRTFTIYAMGWYRQAPGKERELVAAISWSEGSTYYADSVKGRFTISRDNAKNTVYLQMNSLKPEDTAVYYCAREVYGDASAPDMDYWGQGTQVTVSS”, the “polyreactivity (PSR sort gate)” value is on record as “low polyreactivity”.

With “QVQLVESGGGLVQAGGSLRFSCAASGRTFWSNAMGWYRQAPGKERDFVAVISRAGSTTYYADSVKGRFTISRDNAKNTVYLQMNSLIPEETAVYYCAADRVRSYFSRYYSTPLDYYWGQGTQVTVSS”, the “polyreactivity (PSR sort gate)” value is on record as “high polyreactivity”. As for “QVQLVESGGGLVQAGGSLRFSCAASGRTITRYAMGWYRQAPGKERELVAAISKRGTRTYYADSVKGRFTISRDHAKNTVYLQMNSLKPADTAVYYCNGAGRWALYYHLYTGFDYWGQGTQVTVSS”, the entry is “high polyreactivity”; as for “QVQLVESGGGLVQAGGSLRFSCAASGRTSRYYAMRWYRQAPGKERELVAGISTGGSTYYADSVKGRFTISRDNAKNTVYLQMKSLKPEDTAVYYCAAKYTRTNYYYWYYRMDFWGQGTQVTVSS”, “low polyreactivity”.

Take “QVQLVESGGGLVQAGGSLRFSCAASGSIFDYYAMGWYRQAPGKERELVASITWSGGRTSYADSVKGRFTISRDNAKNTVYLQMNSLKPEDTAVYYCAAKLWSYAYQHKRVWYYYWGQGTQVTVSS”: the “polyreactivity (PSR sort gate)” value was “high polyreactivity”. As to “QVQLVESGGGLVQAGGSLRFSCAASGSIFFNNAMGWYRQAPGKERELVAAITTGGSTYYADSVKGRFTISRDNAKNTVYLQMNSLKPEDTAVYYCAAVVVYPYRLGYDYWGQGTQVTVSS”, the “polyreactivity (PSR sort gate)” value is on record as “low polyreactivity”. As to “QVQLVESGGGLVQAGGSLRFSCAASGSIFSWYAMGGYRQAPGKERELVAAITWTGGSTYYADSVKGRFTISRDNAKNTVYLQMNSLKPEETAVYYCAARRVVYRKYGDRARWYNYWGHGTQVTVSS”, the “polyreactivity (PSR sort gate)” value is on record as “high polyreactivity”. Consider “QVQLVESGGGLVQAGGSLRFSCAASGSILYYNAKGWYIQAPGKEREFVAAISDSGSSTYYADSVKGRFTISRDTAKNTVYLQMNSLKPEDTADYYCNAYQGDKYDSWGQGSQVTVSS”, for which the “polyreactivity (PSR sort gate)” value is reported as “low polyreactivity”. As for “QVQLVESGGGLVQAGGSLRFSCAASGSTFIGYAMGWYRQAPGKERELVAGISRGGRTNYADSVKGRFTISRDNAKHTVYLQMNSLKPEDTAVYYCAAGYRRYYEGFWVIQMNYWGQGTQVTVSS”, the entry is “high polyreactivity”; as for “QVQLVESGGGLVQAGGSLRFSCAASGSTFKAYAMGWYRQAPGKERDLVARITYSGDITYYADSVKGRFTISRDNAKNTVYVQMNSLKRDDTAVFYCNDGFFVLEYDYWGQGTQLTVSS”, “low polyreactivity”. As for “QVQLVESGGGLVQAGGSLRFSCAASGSTFRYNAMGWYRQAPGKERELVAVISWGGGRTYYADSVKGRFTISRDNAKNTVYLKMNSLKPEDTAVYYCNVYFGRIVARDYGYWGQGTQVTVSS”, the entry is “high polyreactivity”; as for “QVQLVESGGGLVQAGGSLRFSCAASGSTFSYYDMGWYRQAPGKEREMVAAISWNGGTTFYADSVKGRFTISRDNAMNTVYLQMKSLKPEDTAVYYCAVTGFEVLWPSLGGELDYWGQGTQVTVSS”, “low polyreactivity”. In the case of “QVQLVESGGGLVQAGGSLRFSCAASGSTFYSYAMGWYRQAPGKERELVAGITGNDGSTYYADSVKGRFTISRDNAKNTVYLQMNSLKPEDTAVYYCNTDASPYLFDYWGQGTQVTVSS”, the “polyreactivity (PSR sort gate)” value is “low polyreactivity”. “QVQLVESGGGLVQAGGSLRFSCAASGTFYYYAMGWYRHAPGKERELVAAISYSGGRTYYADSVKGRFTISRDNAKNTVYLQMNSLKPEDTAVYYCNALYRKTPSYGADDYWGQGTQVTVSS”: the “polyreactivity (PSR sort gate)” value is recorded as “high polyreactivity”. As for “QVQLVESGGGLVQAGGSLRFSCAGSGSTFRNYAMGWYRQAPGQERAFVATISSAGGTTYYADSVKGRFTISRDKAKNTLYVQMNSLNPEDTAVYYCAADQHSYRYGGYYYWGQGTQVTVSS”, the entry is “low polyreactivity”.

With “QVQLVESGGGLVQAGGSLRFSCSASGSIFNYYTMGWYRQAPGKERELVAVITSGGSTYYADSVKGRFTISRDNAKNTVYLQMNSLKPEDTAVYYCAAKRRSYLKQGYSVGYWGQGSQVTVSS”, the “polyreactivity (PSR sort gate)” value is on record as “high polyreactivity”.

For “QVQLVESGGGLVQAGGSLRFSCSAYGSILPGYAMGWYRQAPGKERELVDAISYRGTSTYYADSVKGRFTISRDNAKNTVYLQMNSLKPEDTAVYYCAAGGSWFSYPPRMDYWGQGTQVTVSS”, the “polyreactivity (PSR sort gate)” value was “high polyreactivity”.

Regarding “QVQLVESGGGLVQAGGSLRFTFGATGIIFYRNTMGWYSLAPGKHRELVASLSRGGSTNYADSVKGRFTISRDNAKTTVYLQMNRLKPEDTAVDYCAAYTDIPLSYYRGYTMDYWGQGTQVTVSS”, the “polyreactivity (PSR sort gate)” value was “low polyreactivity”. Turning to “QVQLVESGGGLVQAGGSLRICCADSGLTFRFYSSGWYRQAPGKEMELVAAISRSGGSTYYADSVKGRFTISRDNAKNTVYLQMNSLKPEDSAVYYCAAGRRGGKHGGTRGGDYWGQGTQVTVSS”, the “polyreactivity (PSR sort gate)” value is reported as “high polyreactivity”. In the case of “QVQLVESGGGLVQAGGSLRIICAASGRIFSKYARGWYRQAPGKERELVAAISSRGGNTYYADSVKGRFTISRDNAKNTVYLQMTSLKPEDTAVYFCAAGYYYTGYEYDYWGQGTQVTVSS”, the “polyreactivity (PSR sort gate)” value is given as “high polyreactivity”. As for “QVQLVESGGGLVQAGGSLRIICAASGRIFTFYAMGWYRQATGKARELVASIRSSTYYADSVKGRFTISRDNAKYTVYLQMNSLKPEDTALYYCNVRLSYSYISPSDWNFDYWGQGTQVTVSS”, the entry is “low polyreactivity”; as for “QVQLVESGGGLVQAGGSLRIICAASGSTFTWNDMRWYRQAPGKERELVAGISLSAGSTYYADSVKGRFTISRDNAKNTDYLQMKSLKPEHTAVYYCNADPGGPDTYEEHDYWGQGTQVTVSS”, “low polyreactivity”. For the sequence “QVQLVESGGGLVQAGGSLRIISAASGSTFTRYTMGWYRQAPGKEMEFVAAISFSGGSTYYADSVKGRFTIARDNAKNTVYLEMNSLKPEDTAVYYCAASAHCYRPARDYWGQGTQVTVSS”, the “polyreactivity (PSR sort gate)” value was “low polyreactivity”. With “QVQLVESGGGLVQAGGSLRIRCAASGRIFRTNAMGWYRQAPGKERELVAAISDSGADTSYADSVKGRFSISRDNAKNTDYLQMNSLKPEDTAVDYCNRGRVYYRYLKDYDYWGQGTQVTVSS”, the “polyreactivity (PSR sort gate)” value is “low polyreactivity”. In the case of “QVQLVESGGGLVQAGGSLRIRCAASGSTFKTYTMGWYRQAPGKERELVAGITSGGSTSYADSVKGRFTISRDNAKNTVYLQMNSLKPEVTAVYYCAAAEGGGLVTYDYCGQGTQVTVSS”, the “polyreactivity (PSR sort gate)” value is recorded as “low polyreactivity”.
